Experimental data from patent US20230038638A1, “COMPLEMENT FACTOR I-RELATED COMPOSITIONS AND METHODS” (published 2023).

How the values were obtained:
human C4b (human) = molecular target: T1, human C4b (human) (UniProt P0C0L5)
T1 sequence: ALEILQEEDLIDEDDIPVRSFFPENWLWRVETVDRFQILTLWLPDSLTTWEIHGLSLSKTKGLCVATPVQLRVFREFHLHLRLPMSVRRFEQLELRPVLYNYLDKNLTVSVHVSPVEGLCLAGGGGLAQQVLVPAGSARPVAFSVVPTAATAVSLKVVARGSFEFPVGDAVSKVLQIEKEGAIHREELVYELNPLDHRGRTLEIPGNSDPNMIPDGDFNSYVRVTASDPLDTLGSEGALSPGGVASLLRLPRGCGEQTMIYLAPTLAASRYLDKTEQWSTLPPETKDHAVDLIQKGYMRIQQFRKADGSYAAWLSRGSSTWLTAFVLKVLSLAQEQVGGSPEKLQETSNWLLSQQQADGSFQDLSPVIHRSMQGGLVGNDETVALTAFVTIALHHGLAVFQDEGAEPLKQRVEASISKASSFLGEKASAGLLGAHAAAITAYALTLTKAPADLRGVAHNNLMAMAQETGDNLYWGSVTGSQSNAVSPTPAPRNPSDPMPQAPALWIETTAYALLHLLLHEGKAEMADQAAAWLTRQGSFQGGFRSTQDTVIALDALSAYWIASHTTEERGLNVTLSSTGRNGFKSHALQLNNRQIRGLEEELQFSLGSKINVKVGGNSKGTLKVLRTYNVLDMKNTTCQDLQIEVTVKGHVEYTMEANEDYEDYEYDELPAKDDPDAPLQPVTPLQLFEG

[1] = molecular target: soluble human C3b (human) (UniProt P01024)

Δ(K1-P305); GGSSGG (SEQ ID NO: 6); fH_CCP2-4 (enzyme), sequence (chain): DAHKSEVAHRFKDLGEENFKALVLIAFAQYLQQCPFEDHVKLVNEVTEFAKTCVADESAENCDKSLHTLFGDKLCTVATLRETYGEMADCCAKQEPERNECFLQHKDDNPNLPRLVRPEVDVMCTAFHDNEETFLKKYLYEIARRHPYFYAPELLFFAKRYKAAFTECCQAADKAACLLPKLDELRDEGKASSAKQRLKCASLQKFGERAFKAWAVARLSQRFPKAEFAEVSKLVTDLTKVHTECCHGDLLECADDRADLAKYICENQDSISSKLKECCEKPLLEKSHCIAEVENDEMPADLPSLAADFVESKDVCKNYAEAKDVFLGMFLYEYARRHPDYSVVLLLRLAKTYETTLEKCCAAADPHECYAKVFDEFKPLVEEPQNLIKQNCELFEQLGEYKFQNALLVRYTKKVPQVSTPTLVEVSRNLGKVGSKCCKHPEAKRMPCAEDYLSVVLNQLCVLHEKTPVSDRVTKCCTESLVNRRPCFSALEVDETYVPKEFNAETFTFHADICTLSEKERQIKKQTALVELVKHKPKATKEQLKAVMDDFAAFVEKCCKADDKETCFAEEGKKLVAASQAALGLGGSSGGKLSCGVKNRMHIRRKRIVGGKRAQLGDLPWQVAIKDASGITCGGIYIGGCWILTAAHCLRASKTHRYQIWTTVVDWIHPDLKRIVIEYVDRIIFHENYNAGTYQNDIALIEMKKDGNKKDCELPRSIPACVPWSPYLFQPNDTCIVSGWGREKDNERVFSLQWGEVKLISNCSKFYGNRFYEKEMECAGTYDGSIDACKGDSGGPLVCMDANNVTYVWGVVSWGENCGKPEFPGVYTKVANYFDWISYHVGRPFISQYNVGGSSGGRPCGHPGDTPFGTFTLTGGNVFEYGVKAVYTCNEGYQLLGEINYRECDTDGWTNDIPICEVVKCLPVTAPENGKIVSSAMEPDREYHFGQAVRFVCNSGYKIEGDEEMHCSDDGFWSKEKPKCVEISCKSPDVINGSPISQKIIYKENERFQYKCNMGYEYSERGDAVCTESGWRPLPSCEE
WT; GGSSGG (SEQ ID NO: 6); CCP_1-4 (enzyme), sequence (chain): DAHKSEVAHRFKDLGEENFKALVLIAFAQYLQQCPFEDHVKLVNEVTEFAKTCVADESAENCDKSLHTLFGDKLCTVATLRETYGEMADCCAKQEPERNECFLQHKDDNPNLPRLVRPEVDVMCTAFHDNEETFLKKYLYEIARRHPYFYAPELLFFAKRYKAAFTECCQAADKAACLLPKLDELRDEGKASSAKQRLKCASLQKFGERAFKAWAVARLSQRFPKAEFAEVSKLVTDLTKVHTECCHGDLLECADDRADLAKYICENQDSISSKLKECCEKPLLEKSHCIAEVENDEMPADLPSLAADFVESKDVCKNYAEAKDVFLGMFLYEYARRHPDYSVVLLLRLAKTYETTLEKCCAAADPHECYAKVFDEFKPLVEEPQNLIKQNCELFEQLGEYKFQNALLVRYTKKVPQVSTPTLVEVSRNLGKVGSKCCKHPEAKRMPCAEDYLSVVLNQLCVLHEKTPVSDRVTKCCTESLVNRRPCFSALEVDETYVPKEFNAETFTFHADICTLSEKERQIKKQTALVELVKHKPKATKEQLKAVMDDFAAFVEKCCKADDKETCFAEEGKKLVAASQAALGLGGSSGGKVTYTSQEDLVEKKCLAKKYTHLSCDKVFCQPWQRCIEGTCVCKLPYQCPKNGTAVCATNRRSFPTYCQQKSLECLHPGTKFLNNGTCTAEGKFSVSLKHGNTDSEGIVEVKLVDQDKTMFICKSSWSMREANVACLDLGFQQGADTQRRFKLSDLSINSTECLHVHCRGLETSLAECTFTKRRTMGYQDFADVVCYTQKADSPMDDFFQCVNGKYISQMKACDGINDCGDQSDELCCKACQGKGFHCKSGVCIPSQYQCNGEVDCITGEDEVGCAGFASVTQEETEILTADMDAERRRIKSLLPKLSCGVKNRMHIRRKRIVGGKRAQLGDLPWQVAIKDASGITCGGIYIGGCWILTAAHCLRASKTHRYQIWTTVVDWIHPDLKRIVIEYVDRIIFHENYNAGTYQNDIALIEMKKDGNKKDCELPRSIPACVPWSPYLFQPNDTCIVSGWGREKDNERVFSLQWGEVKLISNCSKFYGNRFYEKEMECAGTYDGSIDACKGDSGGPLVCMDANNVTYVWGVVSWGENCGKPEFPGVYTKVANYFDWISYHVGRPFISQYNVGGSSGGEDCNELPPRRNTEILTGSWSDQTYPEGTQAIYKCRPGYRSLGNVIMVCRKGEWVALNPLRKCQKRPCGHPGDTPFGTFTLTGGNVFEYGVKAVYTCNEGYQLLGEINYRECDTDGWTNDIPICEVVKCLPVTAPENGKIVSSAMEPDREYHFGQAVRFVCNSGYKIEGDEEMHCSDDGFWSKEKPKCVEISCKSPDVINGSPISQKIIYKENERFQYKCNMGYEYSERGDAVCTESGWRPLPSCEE

| C4b Screen Ref Fold (fold vs CFI-HSA wild type) (human C4b (human)) | iC3b Screen Ref Fold (fold vs CFI-HSA wild type) [1] | Substance | also measured |
| --- | --- | --- | --- |
| 0.07 | 0.46 | CFI-HSA D549V (enzyme) |  |
| 0.2 | 0.37 | CFI-HSA variant K326A-R327A (enzyme) |  |
| 4.01 | 1.14 | CFI-HSA Y408L; E457G; E461Q; R462K; N531G; R557K (enzyme) |  |
| 4.46 | 0.93 | CFI-HSA N531G; E457G; E461Q; R557A (enzyme) |  |
| 0.6 | 0.63 | CFI-HSA Y553N (enzyme) |  |
| 0.23 | 0.45 | CFI-HSA D549M (enzyme) |  |
| 1.11 | 0.1 | CFI-HSA R557S (enzyme) |  |
| 0.05 | 0.22 | CFI-HSA D549F (enzyme) |  |
| 0.31 | 0.39 | CFI-HSA variant I322V; V323I (enzyme) |  |
| -0.01 | -0.04 | CFI-HSA D501G (enzyme) |  |
| 0.03 | -0.02 | CFI-HSA H362G (enzyme) |  |
| 1.68 | 1.74 | CFI-HSA Y408L; E457G; D425R; E530Y (enzyme) |  |
| 0.84 | 0.64 | CFI-HSA variant A361G (enzyme) |  |
| 0.21 | 0.02 | WT; GGSSGG (SEQ ID NO: 6); CCP_1-4 (enzyme) |  |
| 0.14 | 1.17 | CFI-HSA Q69G (enzyme) |  |
| 0.01 | 0 | CFI-HSA variant Y408L; N531G; E457G; E461Q; R462K; F464Y; S507A (enzyme) |  |
| 0.25 | 0.11 | WT; GGSSGG (SEQ ID NO: 6); CCP_1-4; GGSS(6) + G; compstatin (enzyme) |  |
| 0.13 | 0.04 | CFI-HSA variant S507A (enzyme) |  |
| 2.74 | 0.02 | CFI-HSA Y408L; E457G; R462K; F464Y; N531G; GGSSGG (SEQ ID NO: 6); CR1 (ccp15-17) (from UniProt P17927) (enzyme) |  |
| -0.06 | 0.02 | CFI-HSA R365E (enzyme) |  |
| 0.34 | 0.03 | (HSA-GS)-V311-V565 - G(13) - K1-G310 (enzyme) |  |
| 0.38 | 0.36 | CFI-HSA variant I322V; V323I; R327P (enzyme) |  |
| 0.06 | 0.09 | CFI-HSA A502G (enzyme) |  |

The next lines start with the substance.

| Substance | C4b Screen Ref Fold (fold vs CFI-HSA wild type) (human C4b (human)) | iC3b Screen Ref Fold (fold vs CFI-HSA wild type) [1] | also measured |
| --- | --- | --- | --- |
| CFI-HSA variant Y408L; N531G; P535G; K534Q (enzyme) |  |  | C4b Screen Ref Fold (fold of CFI-HSA wild type) (human C4b (human)): 1.47; iC3b Screen Ref Fold (fold of CFI-HSA wild type) [1]: 1.2 |
| CFI-HSA variant R462K (enzyme) | 0.27 | 0.24 |  |
| CFI-HSA D549W (enzyme) | 0.25 | 0.68 |  |
| CFI-HSA variant S507A; GGSSGG (SEQ ID NO: 6); CR1(ccp1-3) (from UniProt P17927) (enzyme) |  |  | C4b Screen Ref Fold (fold of CFI-HSA wild type) (human C4b (human)): 0.12; iC3b Screen Ref Fold (fold of CFI-HSA wild type) [1]: 0.02 |
| CFI-HSA variant E487A; K14A (enzyme) |  |  | C4b Screen Ref Fold (fold of CFI-HSA wild type) (human C4b (human)): 0.87; iC3b Screen Ref Fold (fold of CFI-HSA wild type) [1]: 1.71 |
| CFI-HSA T377G; E461Q (enzyme) | 3.17 | 2.82 |  |
| CFI-HSA R365W (enzyme) | 0.24 | 0.89 |  |
| CFI-HSA variant P535K (enzyme) | 1.02 | 1.61 |  |
| CFI-HSA variant D506E (enzyme) | 0.01 | 0 |  |
| CFI-HSA K423E (enzyme) | 0.32 | 0.61 |  |
| CFI-HSA variant Y408L; E457G; N531G; P535G; WT; GGSSGG (SEQ ID NO: 6); CR1(ccp15-17) (from UniProt P17927) (enzyme) |  |  | C4b Screen Ref Fold (fold of CFI-HSA wild type) (human C4b (human)): 3.14; iC3b Screen Ref Fold (fold of CFI-HSA wild type) [1]: 0.05 |
| CFI-HSA variant Y408L; K534Q (enzyme) |  |  | C4b Screen Ref Fold (fold of CFI-HSA wild type) (human C4b (human)): 1.26; iC3b Screen Ref Fold (fold of CFI-HSA wild type) [1]: 0.97 |
| CFI-HSA variant E457G; P535G; N422K (enzyme) |  |  | C4b Screen Ref Fold (fold of CFI-HSA wild type) (human C4b (human)): 1.87; iC3b Screen Ref Fold (fold of CFI-HSA wild type) [1]: 1.43 |
| CFI-HSA variant Y553F; P558S (enzyme) |  |  | C4b Screen Ref Fold (fold of CFI-HSA wild type) (human C4b (human)): 1.26; iC3b Screen Ref Fold (fold of CFI-HSA wild type) [1]: 0.84 |
| CFI-HSA K424W (enzyme) | 0.25 | 1.52 |  |
| CFI-HSA variant Y408L; P535G; N422K (enzyme) |  |  | C4b Screen Ref Fold (fold of CFI-HSA wild type) (human C4b (human)): 0.17; iC3b Screen Ref Fold (fold of CFI-HSA wild type) [1]: 1.03 |
| CFI-HSA Y553H (enzyme) | 1.56 | 1.11 |  |
| WT; GGSSGG (SEQ ID NO: 6); CCP_1-5; GGSS(3) + GGG; compstatin (enzyme) | 0.25 | 0.03 |  |
| CFI-HSA variant Y408L; N531G; P535G (enzyme) |  |  | C4b Screen Ref Fold (fold of CFI-HSA wild type) (human C4b (human)): 0.89; iC3b Screen Ref Fold (fold of CFI-HSA wild type) [1]: 0.97 |
| CFI-HSA variant K14E; E487K (enzyme) |  |  | C4b Screen Ref Fold (fold of CFI-HSA wild type) (human C4b (human)): 0.7; iC3b Screen Ref Fold (fold of CFI-HSA wild type) [1]: 1.43 |
| CFI-HSA N531G; P535A; R557K (enzyme) | 4.13 | 1.65 |  |

| Substance | C4b Screen Ref Fold (fold vs CFI-HSA wild type) (human C4b (human)) | iC3b Screen Ref Fold (fold vs CFI-HSA wild type) [1] | also measured |
| --- | --- | --- | --- |
| CFI-HSA R365S (enzyme) | 0.18 | 0.6 |  |
| CFI-HSA variant V565I (enzyme) |  |  | C4b Screen Ref Fold (fold of CFI-HSA wild type) (human C4b (human)): 1.11; iC3b Screen Ref Fold (fold of CFI-HSA wild type) [1]: 1.25 |
| Δ(K1-P305); GGSSGG (SEQ ID NO: 6); fH_CCP2-4 (enzyme) | 0.06 | 0.03 |  |
| CFI-HSA variant P558S; F559L (enzyme) |  |  | C4b Screen Ref Fold (fold of CFI-HSA wild type) (human C4b (human)): 0.9; iC3b Screen Ref Fold (fold of CFI-HSA wild type) [1]: 0.54 |
| CFI-HSA variant F559Y (enzyme) |  |  | C4b Screen Ref Fold (fold relative to CFI-HSA wild type) (human C4b (human)): 0.66; iC3b Screen Ref Fold (fold relative to CFI-HSA wild type) [1]: 1.23 |
| CFI-HSA variant Δ(K1-P305); Y408L; N531G (enzyme) | 0.14 | 0.05 |  |
| CFI-HSA variant F559L; V565T (enzyme) |  |  | C4b Screen Ref Fold (fold of CFI-HSA wild type) (human C4b (human)): 0.28; iC3b Screen Ref Fold (fold of CFI-HSA wild type) [1]: 0.54 |
| CFI-HSA variant Y403F; G406A; D425K; E457G; E461Q; N531G (enzyme) |  |  | C4b Screen Ref Fold (fold relative to CFI-HSA wild type) (human C4b (human)): 4.12; iC3b Screen Ref Fold (fold relative to CFI-HSA wild type) [1]: 0.14 |
| CFI-HSA P538G (enzyme) | 0.07 | -0.01 |  |
| CFI-HSA E457G; E461Q; R557A (enzyme) | 4.5 | 1.29 |  |
| CFI-HSA D549K (enzyme) | 1 | 0.18 |  |
| CFI-HSA K423D (enzyme) | 0.31 | 0.33 |  |
| CFI-HSA R557T (enzyme) | 1.63 | 0.09 |  |
| CFI-HSA variant Y553H; F559L; P558S (enzyme) |  |  | C4b Screen Ref Fold (fold of CFI-HSA wild type) (human C4b (human)): 0.69; iC3b Screen Ref Fold (fold of CFI-HSA wild type) [1]: 0.22 |
| CFI-HSA variant K14E (enzyme) |  |  | C4b Screen Ref Fold (fold of CFI-HSA wild type) (human C4b (human)): 1.35; iC3b Screen Ref Fold (fold of CFI-HSA wild type) [1]: 1.74 |
| CFI-HSA D549T (enzyme) | 1.05 | 1.09 |  |
| CFI-HSA L73G (enzyme) | 0.17 | 0.3 |  |
| CFI-HSA variant P535G; P558S (enzyme) |  |  | C4b Screen Ref Fold (fold of CFI-HSA wild type) (human C4b (human)): 0.2; iC3b Screen Ref Fold (fold of CFI-HSA wild type) [1]: 0.25 |
| CFI-HSA K424E (enzyme) | 0.23 | 1.08 |  |
| CFI-HSA Y408L; E457G; E461Q; R462K; N531G; GGSSGG (SEQ ID NO: 6); CR1 (ccp15-17) (from UniProt P17927) (enzyme) | 1.84 | 0.18 |  |
